Measurements reported in patent US20070274969A1.

Columns and labels:
[1] = molecular target: rat Bub1, endogenous (rat); test: cell-based or functional assay
[2] = molecular target: human Bub1, endogenous (human) (UniProt O43683); test: cell-based or functional assay
Sequence of human Bub1, endogenous (human) (O43683 whole entry): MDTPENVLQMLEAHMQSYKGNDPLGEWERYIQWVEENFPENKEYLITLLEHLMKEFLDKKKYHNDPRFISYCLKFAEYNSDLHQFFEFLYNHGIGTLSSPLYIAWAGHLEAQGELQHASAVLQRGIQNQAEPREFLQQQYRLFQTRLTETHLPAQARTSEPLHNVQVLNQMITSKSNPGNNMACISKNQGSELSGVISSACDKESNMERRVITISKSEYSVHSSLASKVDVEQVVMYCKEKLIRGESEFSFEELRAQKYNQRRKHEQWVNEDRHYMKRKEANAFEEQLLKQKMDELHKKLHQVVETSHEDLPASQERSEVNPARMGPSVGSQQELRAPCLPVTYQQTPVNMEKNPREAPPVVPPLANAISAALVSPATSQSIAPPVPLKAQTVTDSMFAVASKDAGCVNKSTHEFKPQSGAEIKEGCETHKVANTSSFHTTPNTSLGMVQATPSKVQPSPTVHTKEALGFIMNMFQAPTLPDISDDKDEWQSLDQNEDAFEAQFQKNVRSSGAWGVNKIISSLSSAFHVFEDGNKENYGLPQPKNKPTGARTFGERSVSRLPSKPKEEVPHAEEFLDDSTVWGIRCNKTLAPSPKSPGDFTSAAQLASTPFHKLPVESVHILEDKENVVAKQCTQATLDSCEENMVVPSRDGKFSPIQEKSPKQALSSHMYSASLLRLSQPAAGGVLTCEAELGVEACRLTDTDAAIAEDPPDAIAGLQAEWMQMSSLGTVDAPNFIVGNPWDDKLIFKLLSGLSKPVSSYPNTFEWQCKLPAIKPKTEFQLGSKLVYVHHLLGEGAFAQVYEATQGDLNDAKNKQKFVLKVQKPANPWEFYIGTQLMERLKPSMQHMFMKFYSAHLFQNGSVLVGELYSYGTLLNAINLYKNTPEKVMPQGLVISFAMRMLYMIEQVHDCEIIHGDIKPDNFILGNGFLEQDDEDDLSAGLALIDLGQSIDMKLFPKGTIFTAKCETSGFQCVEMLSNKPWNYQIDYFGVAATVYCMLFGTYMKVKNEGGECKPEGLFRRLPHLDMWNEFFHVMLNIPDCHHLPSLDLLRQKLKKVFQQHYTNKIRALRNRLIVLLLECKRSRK

**Q.** “SV40 large T antigen, wild-type (from UniProt P03070 1-708)” was tested. Which cells that proceed to anaphase at 24 ng/ml nocodazole, time-lapse microscopy of immortalized rat embryo fibroblasts [1] did it give?
**A.** The cells that proceed to anaphase at 24 ng/ml nocodazole, time-lapse microscopy of immortalized rat embryo fibroblasts was 90%.

**Q.** What about the % > 4N cells (endoreduplication), 100 ng/ml nocodazole [2] of the same substance?
**A.** The % > 4N cells (endoreduplication), 100 ng/ml nocodazole was 45.7%.

**Q.** What about the mitotic index (phospho-histone H3 positive cells), nocodazole for 15 hours [2] of the same substance?
**A.** The mitotic index (phospho-histone H3 positive cells), nocodazole for 15 hours was 14.6%.
